Data from publication PMC4877050.

Target: wild-type Bcl-xL (mouse full-length, adenovirus-expressed) (mouse) (UniProt Q64373)
Experiment: native gel or EMSA; Blue Native PAGE (4-16% Bis-Tris) of the mitochondrial fraction of adenovirus-transduced TKPTS cells, extracted with 1% n-dodecyl-β-D-maltoside; blots probed for Bcl-xL, then Bax

## wild-type Bcl-xL (mouse full-length, adenovirus-expressed) (from UniProt Q64373-1 1-233) (natural protein)
  stoichiometry N: 2
